{"source": "patent WO2015086830A1", "about": "(dated 2015)", "binders": {"B1": {"name": "scFv3, anti-VEGF-scFv comprising SEQ ID No.: 3 (scFv)", "scFv": "EIVMTQSPSTLSASVGDRVIITCQASEIIHSWLAWYQQKPGKAPKLLIYLASTLASGVPSRFSGSGSGAEFTLTISSLQPDDFATYYCQNVYLASTNGANFGQGTKLTVLGGGGGSGGGGSGGGGSGGGGSEVQLVESGGGLVQPGGSLRLSCTASGFSLTDYYYMTWVRQAPGKGLEWVGFIDPDDDPYYATWAKGRFTISRDNSKNTLYLQMNSLRAEDTAVYYCAGGDHNSGWGLDIWGQGTLVTVSS", "notes": "About 26.3 kDa"}}, "key": {"[1]": {"target": "VEGF (vascular endothelial growth factor) (UniProt P15692-4 27-191, limits assumed)", "sequence (P15692 other isoform, or with tags, fused parts or gaps limits assumed)": "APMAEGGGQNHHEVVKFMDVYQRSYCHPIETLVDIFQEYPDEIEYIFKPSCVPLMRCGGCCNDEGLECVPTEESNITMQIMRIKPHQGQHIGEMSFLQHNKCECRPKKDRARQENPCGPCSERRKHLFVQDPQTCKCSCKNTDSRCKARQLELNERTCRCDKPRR", "test": "cell-based or functional assay"}, "VEGF165": {"target": "T1, VEGF165 (UniProt P15692-4 27-191)", "T1 construct": "P15692 is the human VEGFA entry; VEGF165 is one isoform of that entry; also called VEGFA isoform 165", "T1 sequence (P15692 other isoform, or with tags, fused parts or gaps limits assumed)": "as above", "test": "in vitro binding; method not stated"}}}
{"binder": "B1", "values": [{"measurement": "VEGF induced HUVEC proliferation, IC50", "setting": "[1]", "result": 0.19, "unit": "nM"}, {"measurement": "Kd", "setting": "VEGF165", "result": 0.0284, "unit": "nM"}]}
